Experimental data as given in IntAct's records for PubMed 9389648.

B1: Mothers against decapentaplegic homolog 2 (Homo sapiens), Q15796 (parent)
chain: MSSILPFTPPVVKRLLGWKKSAGGSGGAGGGEQNGQEEKWCEKAVKSLVKKLKKTGRLDELEKAITTQNCNTKCVTIPSTCSEIWGLSTPNTIDQWDTTGLYSFSEQTRSLDGRLQVSHRKGLPHVIYCRLWRWPDLHSHHELKAIENCEYAFNLKKDEVCVNPYHYQRVETPVLPPVLVPRHTEILTELPPLDDYTHSIPENTNFPAGIEPQSNYIPETPPPGYISEDGETSDQQLNQSMDTGSPAELSPTTLSPVNHSLDLQPVTYSEPAFWCSIAYYELNQRVGETFHASQPSLTVDGFTDPSNSERFCLGLLSNVNRNATVEMTRRHIGRGVRLYYIGGEVFAECLSDSAIFVQSPNCNQRYGWHPATVCKIPPGCNLKIFNNQEFAALLAQSVNQGFEAVYQLTRMCTIRMSFVKGWGAEYRRQTVTSTPCWIELHLNGPLQWLDKVLTQMGSPSVRCSSMS
partner: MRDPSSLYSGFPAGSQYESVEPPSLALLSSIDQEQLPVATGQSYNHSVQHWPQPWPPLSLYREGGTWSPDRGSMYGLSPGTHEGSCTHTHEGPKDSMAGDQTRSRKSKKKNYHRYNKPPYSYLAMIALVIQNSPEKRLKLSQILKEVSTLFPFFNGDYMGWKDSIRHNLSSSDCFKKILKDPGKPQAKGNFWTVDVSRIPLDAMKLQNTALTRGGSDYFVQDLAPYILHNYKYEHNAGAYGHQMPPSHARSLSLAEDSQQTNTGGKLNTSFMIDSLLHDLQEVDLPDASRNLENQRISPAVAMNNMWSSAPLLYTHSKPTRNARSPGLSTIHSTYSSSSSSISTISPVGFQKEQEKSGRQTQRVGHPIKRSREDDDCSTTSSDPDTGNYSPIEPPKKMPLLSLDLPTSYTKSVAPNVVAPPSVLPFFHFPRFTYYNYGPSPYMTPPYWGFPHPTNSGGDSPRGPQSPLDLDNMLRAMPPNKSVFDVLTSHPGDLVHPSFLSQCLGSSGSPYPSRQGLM

Variants of: B1
Conditions: with foxh1_xenla foxh1, P70056

Variant	effect of a mutation on the interaction
D450E	disrupting interaction
S464A;S465A;S467A	disrupting interaction
